The values below come from publication PMC8368218 (Cell Discovery, 2021).

Experiment [1] concerns the target G3BP1^NTF2 (UniProt Q13283). Put plainly: ITC. In general terms: ITC needs no label: the signal is the heat of the interaction.
Experiment [2] addresses T1, G3BP1^NTF2 (UniProt Q13283 11-133).
T1 construct: also called NTF2 domain of G3BP1
Briefly: ITC. The following applies: both partners purified.

Where “and” joins values, the source holds several entries; their conditions need not be identical. Identical values can stand only once.

Sequence of G3BP1^NTF2 (UniProt Q13283) (Q13283 11-133): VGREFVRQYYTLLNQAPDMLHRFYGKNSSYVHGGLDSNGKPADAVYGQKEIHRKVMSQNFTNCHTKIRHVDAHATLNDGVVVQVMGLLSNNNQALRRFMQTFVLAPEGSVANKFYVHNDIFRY
T1 sequence (Q13283 11-133): as above

Take “SARS-CoV-2 N^11–24 I/A (from UniProt P0DTC9 11-24) (domain or fragment)”: the fold reduction of affinity against N^11–24 wild type in experiment [1] was 6 fold and 7 fold.

As to “SARS-CoV-2 N^11–24 F/A (from UniProt P0DTC9 11-24) (domain or fragment)”, in experiment [1], the fold reduction of affinity against N^11–24 wild type was 7 fold and 6 fold.

B1: SARS-CoV-2 N^11–24 (domain or fragment)
chain: NAPRITFGGPSDST
notes: also called fragment from the N-IDR of N protein
On to B1, for which the Kd (commonly the constant that tells how readily two partners part at equilibrium) in experiment [2] was about 10 µM.
